Experimental data from patent publication US20090214518A1.

Target: Endothelin B receptor (ETRB) (human) (UniProt P24530)
Assay: cell-based or functional assay

Chain of UniProt P24530 (P24530 27-442 limits assumed): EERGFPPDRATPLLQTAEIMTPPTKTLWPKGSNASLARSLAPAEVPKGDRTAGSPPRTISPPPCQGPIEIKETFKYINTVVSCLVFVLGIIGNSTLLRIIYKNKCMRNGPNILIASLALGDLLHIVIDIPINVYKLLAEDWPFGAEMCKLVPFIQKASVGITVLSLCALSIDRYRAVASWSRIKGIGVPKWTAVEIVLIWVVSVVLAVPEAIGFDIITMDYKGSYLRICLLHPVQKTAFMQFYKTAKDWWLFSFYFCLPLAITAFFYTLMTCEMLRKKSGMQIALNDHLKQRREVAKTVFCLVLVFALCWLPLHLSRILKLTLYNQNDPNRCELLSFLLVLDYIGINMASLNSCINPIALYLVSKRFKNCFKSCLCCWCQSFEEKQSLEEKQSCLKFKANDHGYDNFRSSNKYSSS

ICAM-1 mRNA in HUVEC (qRT-PCR): > 7 fold
adherence of activated human T cells to HUVEC: 40%
Substance: ETRB antagonist peptide, BQ-788
